Measured values: patent publication US20260015426A1 (23ANDME, published 2026)
Substitutions are numbered along the chain they refer to. In names and notes the source's numbering stands. Read-outs that look alike come from different tables or passages of the source. One block for each binder: values may come before it.

How the values were obtained:
[1] = target: T1, human IL1RAP (hu-IL1RAP) on human cells (human, UniProt Q9NPH3 21-570); assay: cell-based or functional assay
T1 sequence: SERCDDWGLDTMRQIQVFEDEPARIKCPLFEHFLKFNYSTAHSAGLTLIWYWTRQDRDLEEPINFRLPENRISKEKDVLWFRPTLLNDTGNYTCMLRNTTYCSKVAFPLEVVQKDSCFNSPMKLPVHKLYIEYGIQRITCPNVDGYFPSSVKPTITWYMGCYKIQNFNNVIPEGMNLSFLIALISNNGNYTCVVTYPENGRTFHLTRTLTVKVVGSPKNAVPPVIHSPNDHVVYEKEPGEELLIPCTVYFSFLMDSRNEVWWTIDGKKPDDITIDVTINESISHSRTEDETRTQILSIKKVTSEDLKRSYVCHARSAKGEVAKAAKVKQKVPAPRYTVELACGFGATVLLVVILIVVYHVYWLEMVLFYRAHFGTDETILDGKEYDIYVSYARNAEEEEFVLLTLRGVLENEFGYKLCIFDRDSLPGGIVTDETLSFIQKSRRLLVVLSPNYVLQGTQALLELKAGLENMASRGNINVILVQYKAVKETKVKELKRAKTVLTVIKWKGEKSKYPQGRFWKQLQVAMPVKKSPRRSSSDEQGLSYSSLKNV

[2] = target: T2, cyno-M-IL1RAP construct, positions S21-T367 (cynomolgus monkey, UniProt P59822 21-367 (rhesus entry)); assay: SPR, IgG analyte (apparent), 37 C, pH 7.4
T2 construct: Biotinylated when captured on the Biacore chip; also called cy-M-IL1RAP
T2 sequence: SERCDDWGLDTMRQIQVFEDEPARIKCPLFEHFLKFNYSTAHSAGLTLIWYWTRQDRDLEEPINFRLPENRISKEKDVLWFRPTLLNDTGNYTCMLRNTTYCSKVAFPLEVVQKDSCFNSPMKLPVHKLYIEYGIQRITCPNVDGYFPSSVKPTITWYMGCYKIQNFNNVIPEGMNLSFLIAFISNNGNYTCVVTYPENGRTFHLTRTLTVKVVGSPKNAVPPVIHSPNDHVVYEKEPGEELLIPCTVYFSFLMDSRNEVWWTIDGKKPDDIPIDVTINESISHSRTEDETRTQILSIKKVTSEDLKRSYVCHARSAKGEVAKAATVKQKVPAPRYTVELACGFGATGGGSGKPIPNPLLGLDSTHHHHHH

[3] = target: T3, hu-M-IL1RAP construct, positions S21-T367 (extracellular domain of the membrane form of human IL1RAP) (human, UniProt Q9NPH3 21-367); assay: SPR, IgG analyte (apparent), 37 C, pH 7.4
T3 construct: Biotinylated when captured on the Biacore chip
T3 sequence: T2 sequence with F183L, P273T, T326K

[4] = target: T4, biotinylated cyno FcRn (Acro biosystems, catalogue number FCM-C5284) (cynomolgus monkey, UniProt Q8SPV9 24-297; Q8SPW0 21-119, limits assumed, biotinylated); assay: SPR steady state, FcRn captured, 25 C, pH 6.0; pH 6.0
T4 construct: Bought reagent

[5] = target: T5, biotinylated human FcRn (Acro biosystems, catalogue number FCN-H52W7) (human, UniProt P55899 24-297; P61769 21-119, biotinylated); assay: as above
T5 construct: Bought reagent; also called hu-FcRn

[6] = target: T2, cyno-M-IL1RAP construct, positions …; assay: SPR, 37 C
[7] = target: T3, hu-M-IL1RAP construct, positions …; assay: SPR, 37 C
[8] = target: T2, cyno-M-IL1RAP construct, positions …; assay: SPR, IgG analyte (apparent), 37 C, pH 6
[9] = target: T3, hu-M-IL1RAP construct, positions …; assay: SPR, IgG analyte (apparent), 37 C, pH 6
[10] = target: T2, cyno-M-IL1RAP construct, positions …; assay: SPR, IgG analyte (apparent), pH 7.4, 37 C
[11] = target: T3, hu-M-IL1RAP construct, positions …; assay: SPR, IgG analyte (apparent), pH 7.4, 37 C
[12] = target: T1, human IL1RAP (hu-IL1RAP) on human cells; assay: cell-based or functional assay; remark: listed apart in the source
[13] = target: T2, cyno-M-IL1RAP construct, positions …; assay: BLI (OCTET), mAb on AMC sensor, 25 C
[14] = target: T3, hu-M-IL1RAP construct, positions …; assay: BLI (OCTET), mAb on AMC sensor, 25 C
[15] = target: T1, human IL1RAP (hu-IL1RAP) on human cells; assay: cell-based or functional assay; remark: listed apart in the source
[16] = target: T1, human IL1RAP (hu-IL1RAP) on human cells; assay: cell-based or functional assay; remark: listed apart in the source
[17] = target: T3, hu-M-IL1RAP construct, positions …; assay: ELISA, hybridoma supernatant
[18] = target: T1, human IL1RAP (hu-IL1RAP) on human cells; assay: cell-based or functional assay; remark: listed apart in the source
[19] = target: T6, hu-M-IL1RAP-D3 construct, positions K238-T367 (human); assay: ELISA, mAb at 10 nM
T6 chain: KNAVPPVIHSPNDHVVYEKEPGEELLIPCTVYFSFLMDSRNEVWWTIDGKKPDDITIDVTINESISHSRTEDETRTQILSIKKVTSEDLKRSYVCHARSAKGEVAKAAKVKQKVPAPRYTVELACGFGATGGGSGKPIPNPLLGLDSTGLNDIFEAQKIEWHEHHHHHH

[20] = target: T3, hu-M-IL1RAP construct, positions …; assay: ELISA, mAb at 10 nM
[21] = target: T7, hu-S-IL1RAP construct, positions S21-Q356 (soluble human IL1RAP) (human, UniProt Q9NPH3 21-350); assay: ELISA, purified mAb
T7 sequence: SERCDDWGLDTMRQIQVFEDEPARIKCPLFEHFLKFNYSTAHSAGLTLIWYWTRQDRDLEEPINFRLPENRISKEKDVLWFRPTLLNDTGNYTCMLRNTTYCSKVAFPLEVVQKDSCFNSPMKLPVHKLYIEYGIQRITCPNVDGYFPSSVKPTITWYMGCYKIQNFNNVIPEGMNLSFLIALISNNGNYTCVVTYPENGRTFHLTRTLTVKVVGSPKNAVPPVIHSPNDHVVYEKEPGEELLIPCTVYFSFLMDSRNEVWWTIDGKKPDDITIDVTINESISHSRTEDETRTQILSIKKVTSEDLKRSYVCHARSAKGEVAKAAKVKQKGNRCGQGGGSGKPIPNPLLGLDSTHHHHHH

[22] = target: T2, cyno-M-IL1RAP construct, positions …; assay: ELISA, purified mAb
[23] = target: T3, hu-M-IL1RAP construct, positions …; assay: ELISA, purified mAb
[24] = target: T8, mu-M-IL1RAP construct, positions S21-T367 (mouse, UniProt Q61730 21-367); assay: ELISA, purified mAb
T8 construct: also called mo-M-IL1RAP; mouse-M-IL1RAP
T8 sequence: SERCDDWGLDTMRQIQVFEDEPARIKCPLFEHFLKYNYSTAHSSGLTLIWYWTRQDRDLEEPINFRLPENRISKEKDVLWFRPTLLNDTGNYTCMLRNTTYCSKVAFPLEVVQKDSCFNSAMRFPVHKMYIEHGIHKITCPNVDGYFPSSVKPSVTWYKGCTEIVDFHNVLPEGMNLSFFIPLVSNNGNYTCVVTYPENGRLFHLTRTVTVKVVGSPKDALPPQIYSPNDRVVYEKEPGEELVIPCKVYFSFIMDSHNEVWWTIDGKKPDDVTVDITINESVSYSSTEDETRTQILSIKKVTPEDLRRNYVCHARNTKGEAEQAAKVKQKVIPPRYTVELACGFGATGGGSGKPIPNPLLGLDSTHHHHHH

HEK-Blue, IL-1β, IC50 [1]: 0.51 nM | HEK-Blue, IL-33, % inhibition at 100 nM [1]: 95% | HEK-Blue, IL-33, IC50 [1]: 3.15 nM | HEK-Blue, IL-36β, IC50 [1]: 0.9 nM | HEKn, IL-36β stimulated IL-8, IC50 [1]: 1.39 nM | NK cells, IL-33+IL-12 stimulated IFN-γ, IC50 [1]: 2.93 nM | PHLF, IL-1α stimulated IL-8, IC50 [1]: 9.1 nM | PHLF, IL-36β stimulated IL-8, IC50 [1]: 0.39 nM | monocytes, IL-1β stimulated IL-6, IC50 [1]: 0.063 nM | Kd [2]: 0.0339 nM | koff [2]: 6.8e-05 s⁻¹ | kon [2]: 2e+06 M⁻¹ s⁻¹ | Kd [3]: 0.0185 nM | koff [3]: 3.51e-05 s⁻¹ | kon [3]: 1.9e+06 M⁻¹ s⁻¹ | Kd [4]: 45.6 nM | Kd [5]: 558 nM | KD (6)/KD (7.4) [6]: 4.8 ratio | KD (7.4) ratio to YIS [6]: 2.4 ratio | koff (6) ratio to YIS [6]: 4.7 ratio | KD (6)/KD (7.4) [7]: 10 ratio | KD (7.4) ratio to YIS [7]: 0.86 ratio | koff (6) ratio to YIS [7]: 3.8 ratio | Kd [8]: 0.164 nM | koff [8]: 0.000324 s⁻¹ | kon [8]: 1.98e+06 M⁻¹ s⁻¹ | Kd [9]: 0.188 nM | koff [9]: 0.00056 s⁻¹ | kon [9]: 2.98e+06 M⁻¹ s⁻¹ | Kd [10]: 0.0223 nM | koff [10]: 5.39e-05 s⁻¹ | kon [10]: 2.41e+06 M⁻¹ s⁻¹ | Kd [11]: 0.0304 nM | koff [11]: 6.15e-05 s⁻¹ | kon [11]: 2.03e+06 M⁻¹ s⁻¹ | HEK-Blue, IL-1β, % inhibition at 100 nM (IgG) [12]: 100% | HEK-Blue, IL-1β, IC50 (IgG) [12]: 0.513 nM | HEK-Blue, IL-33, % inhibition at 100 nM (IgG) [12]: 100% | HEK-Blue, IL-33, IC50 (IgG) [12]: 2.08 nM | HEK-Blue, IL-36α, % inhibition at 100 nM (IgG) [12]: 100% | HEK-Blue, IL-36α, IC50 (IgG) [12]: 0.622 nM
B1: h11C5 variant K17/H2 IgG (YKD) (antibody)
heavy: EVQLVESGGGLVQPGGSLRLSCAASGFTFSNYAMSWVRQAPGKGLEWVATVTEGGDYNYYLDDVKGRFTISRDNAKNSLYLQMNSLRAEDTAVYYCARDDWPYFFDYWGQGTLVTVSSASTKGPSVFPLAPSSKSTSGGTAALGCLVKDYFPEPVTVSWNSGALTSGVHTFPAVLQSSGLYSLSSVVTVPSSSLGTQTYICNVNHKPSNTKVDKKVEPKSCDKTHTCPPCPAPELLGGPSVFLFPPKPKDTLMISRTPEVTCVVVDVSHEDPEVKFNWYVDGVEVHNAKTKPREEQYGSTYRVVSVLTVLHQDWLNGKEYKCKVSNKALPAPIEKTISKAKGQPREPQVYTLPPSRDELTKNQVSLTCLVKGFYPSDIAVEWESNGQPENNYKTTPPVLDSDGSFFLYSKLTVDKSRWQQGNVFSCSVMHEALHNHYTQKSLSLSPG
light: DIQMTQSPSSLSASVGDRVTITCRASENIYSNLAWYQQKPGKSPKLLVYGYKNLADGVPSRFSGSGSGTDYTLTISSLQPEDFATYYCQHFKTTPRTFGGGTKVEIKRTVAAPSVFIFPPSDEQLKSGTASVVCLLNNFYPREAKVQWKVDNALQSGNSQESVTEQDSKDSTYSLSSTLTLSKADYEKHKVYACEVTHQGLSSPVTKSFNRGEC
notes: Human IgG1 N297G; also called 11C5-YKD

Kd [13]: 0.142 nM | koff [13]: 5.74e-05 s⁻¹ | kon [13]: 413000 M⁻¹ s⁻¹ | Kd [14]: 0.219 nM | koff [14]: 0.000103 s⁻¹ | kon [14]: 469000 M⁻¹ s⁻¹ | HEK-Blue, IL-1α, IC50 [15]: 4.7 nM | HEK-Blue, IL-1β, IC50 [15]: 1 nM | HEK-Blue, IL-33, IC50 [15]: 3.71 nM | HEK-Blue, IL-36α, IC50 [15]: 2.52 nM | HEK-Blue, IL-36β, IC50 [15]: 0.981 nM | HEK-Blue, IL-36γ, IC50 [15]: 0.665 nM | HEK-Blue SEAP, IL-1β, % inhibition (supernatant) [16]: 84% | HEK-Blue SEAP, IL-33, % inhibition (supernatant) [16]: 65% | A450 [17]: 1.44 A450 | HEK-Blue, IL-1β, % inhibition at 100 nM [18]: 99% | HEK-Blue, IL-33, % inhibition at 100 nM [18]: 93% | A450 [19]: 1.44 A450 | A450 [20]: 1.23 A450 | EC50 [21]: 0.029 nM | EC50 [22]: 0.024 nM | EC50 [23]: 0.026 nM
B2: 11C5(Hy) (purified mAb from the 11C5 hybridoma) (antibody, V domains shown)
VH: EVQLVESGGGLVKPGGSLKLSCAASGFTFSNYAMSWVRQTPEKRLEWVATVTEGGDYNYCLDDVKGRFTISRDNANDNLYLQMSHLKSEDSARYYCARDRWPYFFDYWGQGTTLTVSS
VL: DIQMTQSPASLSVSVGETVTITCRASENIYSNLAWYQQKQGRSPQLLVYGAKNLADGVPSRFSGSGSGTQYSLNINSLQSEDFGTYYCQHFWTTPRTFGGGTKLEIK
notes: Mouse hybridoma mAb; also called 11C5(Hy) mAb; mAb 11C5(Hy)
binding result [24]: no binding (tested: 20 nM (highest tested))
